Data from the nanobody polyreactivity screen of Harvey et al. (2022).

Test: yeast display, Sf9 membrane polyspecificity reagent, FACS + sequencing; frameworks hold sequencing errors
Outline: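 Genes from sorted yeast were amplified by colony PCR, read by MiSeq 2 × 250 sequencing and filtered on CDR length. These cells carried a synthetic nanobody library in Saccharomyces cerevisiae BJ5465 and were sorted by FACS into low and high (top ~1%) gates on anti-HA and streptavidin fluorescence. Polyreactivity is labelled according to the gate of origin.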

Sequence	polyreactivity (PSR sort gate)
QVQLVESGGGLVQAGGSLRLSCAASGSIFEPYAMGGYRQAPWTERELVAAIRVSGGSTYYADSVKGRFTISRDNAKNTVYLQMNSLKPEDTAVYYCGPDWWSRYYYWGQGTQVTVSS	high polyreactivity
QVQLVESGGGLVQAGGSLRLSCAASGSIFEPYAMGWYRQAPGKERELVAAISWDVGRTYYADSVKGRFTISRDNAKNTVYLQMNSLKPEDTAVYYCAAEIAIDGYYKSWYDYWGQGTQVTVSS	high polyreactivity
QVQLVESGGGLVQAGGSLRLSCAASGSIFEPYVMGWYRQAPGKERELVAAIRQTGGSTYYADSVKGRFTISRDNAKNTVFLQMNSLKPEDTAVYYCNAKWYGWQRGTVKYDYWGQGTQVTVSS	low polyreactivity
QVQLVESGGGLVQAGGSLRLSCAASGSIFEPYVMGWYRQAPGKERELVAVITSGSGRTYYADSVKGRFTISRDNAKNTVYLQMNSLKPEDTAVYYCNKAYLGYRYDLYDYWGQGTQVTVSS	low polyreactivity
QVQLVESGGGLVQAGGSLRLSCAASGSIFERNAMGWYRQAPGKERELVAAISWSSARTYYADSVKGRFTISRDNAKNTVYLQMNSLKPEDTAVYYCAARVWNEGVRYDYWGQGTQVTVSS	high polyreactivity
QVQLVESGGGLVQAGGSLRLSCAASGSIFESYAMGLYRQAPGKERELVAALTSSGDSTYYADSVKGRFTISRDNAKNTVYLQMYSLNPEDTAVDYCAKRVPTYISTADWVSRYDYWGQGTQVTVSS	low polyreactivity
QVQLVESGGGLVQAGGSLRLSCAASGSIFEVNAMGWYRQAPGKERELVAGISNADSTNYADSVKGRFTISRDNAKNTVYLQMNSLKPEDTAVYYCATDLYRDHPKDLLGPEYDYWGQGTQVTVSS	low polyreactivity
QVQLVESGGGLVQAGGSLRLSCAASGSIFEVYAMGWYRQAPGKERELVAAINYTGGSTYYADSVKGRFTISRDNAKNTVYLQMNSLKPEDTAVYYCAVPRGVASLQKVEFGYWGQGTQVTVSS	low polyreactivity
QVQLVESGGGLVQAGGSLRLSCAASGSIFEYNAMGWYRQAPGKERELVAAISGNGGRTYYADSVKGRFTISRDNAKNTVYLQMNSLKPEDTAVYYCNAQTYYSTYKSTFYYWGQGTQVTVSS	high polyreactivity
QVQLVESGGGLVQAGGSLRLSCAASGSIFEYNAMGWYRQAPGKERELVAAISWSSGTTYYADSVKGRFTISRDNAKNTVYLQMNSLKPEDTAVYYCAAVRWYVPGDVGYWGQGTQVTVSS	low polyreactivity
QVQLVESGGGLVQAGGSLRLSCAASGSIFEYNVMGWYRQAPGKERELVAAINSGGSTYYADSVKGRFTISRDNAKNTVYLQMNSLKPEDTAVYYCAARQRPNRYGYYYWGQGTQVTVSS	high polyreactivity
QVQLVESGGGLVQAGGSLRLSCAASGSIFEYYTMGWYIQAPGKERELVAGISWSGGSSYYADSVKGRFTISRDNAKNTVYLQMNSLKPEDTAVYYCAAGRTGWYWDSGSTYRYGYGYWGQGTQVTVSS	high polyreactivity
QVQLVESGGGLVQAGGSLRLSCAASGSIFFANAMGWYRQAPGKERELVAAITGSGDITYYADSVKGRFTISRDNAKNTVYLQMNSLKPEDTAVYYCAKRYIYVTHLRHPRYYYWGQGTQVTVSS	low polyreactivity
QVQLVESGGGLVQAGGSLRLSCAASGSIFFDYAMGWYRQAPGKERELVAAINSGGTTNYADSVKGRFTISRDNAKNTVYLQMIQPETGRYRGLLLQRLPGYLRWYRWYDYWGQGTQVSVSS	low polyreactivity
QVQLVESGGGLVQAGGSLRLSCAASGSIFFDYAMGWYRQAPGKETELVAAMSSTGGSTYYADSVKGRFTISRDNSKNTVYLQMNSLIPEDTAVYYCNARYYSYSSPYDYWGEGTQVTVSS	high polyreactivity
QVQLVESGGGLVQAGGSLRLSCAASGSIFFFNAMGWYRQAPGKEREFVAAITSSSGRTYYADSVKGRFTISRDNAKNTVYLQMNSLKPEDTAVYYCAAEGLDEGDYWGQGTQVTVSS	low polyreactivity
QVQLVESGGGLVQAGGSLRLSCAASGSIFFKNVMGWYRQAPGKERELVAAITWSGGSTYYADSVKGRFTISRDNAKNTVYLQMNSLKPEDTAVYYCNARRSKGMYYWGQGTQVTVSS	high polyreactivity
QVQLVESGGGLVQAGGSLRLSCAASGSIFFKYAMGWYRQAPGKEREMVAAITWSGGRTYYADSVKGRFTISRDNAKNTVYLQMNSLKPEDTAVYYCNAYSIGVAAADDYWGQGTQVTVSS	high polyreactivity
QVQLVESGGGLVQAGGSLRLSCAASGSIFFPYAMGWYRKAPGKERGLVAAISWRGGITYYADSVKGRFTISRDNAKNTVYLQMNSLKPADTAVYYCAADGPYTGDGALDYWGQGTQVTVSS	high polyreactivity
QVQLVESGGGLVQAGGSLRLSCAASGSIFFRNAMGRYRPAPGKERELVAAISKSGGSTYYADSVKGRFTISRDNAKNTVYLQMNSLKPEDTAVYYCAAERTFLYWAYDYWGQGTQVTVSS	high polyreactivity
QVQLVESGGGLVQAGGSLRLSCAASGSIFFRNAMGWYRQAPGKERELVAAITWNGGSTYYADSVKGRFTISRDNAKNTVYLQMNSLKPEDTAVYYCNKYYYYRDSGYWGQGTQVTVSS	high polyreactivity
QVQLVESGGGLVQAGGSLRLSCAASGSIFFRYALAWYRQAPGKERELVASITSGGSTYYADSVKGRFTISRDNAKNTVYLQMNSLKPEDTAVYYCNALPYRYRRYDYWGQGTQVTVSS	low polyreactivity

Sequence	polyreactivity (PSR sort gate)
QVQLVESGGGLVQAGGSLRLSCAASGSIFFRYAMGWYRQAPGKERELVATIRSSGGRTHYADSVKGRFTISRDNAKNTVYLQMHSLKPEDTAVYYCHYGVYQYPQDYDYWGQGTQVTVSS	low polyreactivity
QVQLVESGGGLVQAGGSLRLSCAASGSIFFRYAMGWYRQAPGKVRELVANISSGGGNTYYADSVKGRFTISRDNAKNTVYLQMNSLKPEDTAVYYCARRLATRGHTYDYWGQGTQVTVSS	low polyreactivity
QVQLVESGGGLVQAGGSLRLSCAASGSIFFSNAMGWYSPAPGKEREIVAGIRSGGITNYADSVKGRFTISRDNAKNTVYLEMNSLKPEDTAVYYCAKLNDHGRYAYAFDYWGQGTQVTVSS	low polyreactivity
QVQLVESGGGLVQAGGSLRLSCAASGSIFFSNVMGWYRQAPGKERELVAAIRWSGDSTYYADSVKRRFTISRDNAKNTVYLQMNSLKPEDTAVYYCARDVYGSVSVSGYYYWGQGTQVTVSA	low polyreactivity
QVQLVESGGGLVQAGGSLRLSCAASGSIFFSYAMGWYRQAPGKEREFVAAINSDDASTYADSVKGRFTISRDNAKNTVYLQMNSLKPEDTAVYYCAASFLWSWYDYWGQGTQVTVSS	low polyreactivity
QVQLVESGGGLVQAGGSLRLSCAASGSIFFSYAMGWYRQARGKERELVAAISTSGGNTYYADSVKGRFTISRDNAKNTVYLQMNSLKPEDTAVYYCNALYIYFYNYLTMDYWGQGTQVTVSS	low polyreactivity
QVQLVESGGGLVQAGGSLRLSCAASGSIFFTNAKGLSRQAPGKERELVAAITSSGTRTYYADSVKGRFTISRDNAKNTVYLQKNSLKPEDTAVYYCAVEVQYKYDYSHTYRYYYWGQGSQVTVSS	high polyreactivity
QVQLVESGGGLVQAGGSLRLSCAASGSIFFVNAMGWYRQAPGKERELVAAITWNAGRTYYADSVKGRFTISRDNAKNTVYLQMNSLKPEDTAVYYCNARAYYSSAIYDYWGQGTQVTVSS	low polyreactivity
QVQLVESGGGLVQAGGSLRLSCAASGSIFFWYAMGWYRQAPGKERELVAAISRGGRTTYADSVKGRFTISRDNAKNTVYLQMNSLKPEDTAVYYCAAYRYFTYFYYSDYPYNYWGQGTQVTVSS	high polyreactivity
QVQLVESGGGLVQAGGSLRLSCAASGSIFFYALGWYRQAPGKERELVADITYTGGSKYADSVKGRFTISRDNAKNTVYLQLNRLKPEDTAVYYCAKLDGGLFDYWGQGTQVTVSS	low polyreactivity
QVQLVESGGGLVQAGGSLRLSCAASGSIFFYYAMGRYRQAPGKEMELVATINIGAGSTNYADSVKGRFTISRDNAKNTVYLQMNSLKPEDTAVYYCAADVNFYQDYIYLTDYDYWGQGTQVTVSS	low polyreactivity
QVQLVESGGGLVQAGGSLRLSCAASGSIFFYYAMGRYRQARGKERQLVAAISYSDGTTYYADSVKGRFTISRDNAKNTVYLQMNSLKPEDTAVYYCAADLWVGLVTLWDGYVQYDYWGQGTQVTVSS	low polyreactivity
QVQLVESGGGLVQAGGSLRLSCAASGSIFFYYAMGWYRQAPGKERELVAAINSDGSTNYADSVKGRFTISRDNAKNTVYLQMNSLKPEDTAVYYCNADTPYYQGEYNYWGQGTQVTVSS	low polyreactivity
QVQLVESGGGLVQAGGSLRLSCAASGSIFFYYAMGWYRQAPGKERELVATITSGGSTSYADSVKGRFTISRDNAKNTVYLQMNSLKPEDTAVYYCAARKVTKSTYNYWGQGTQVTVSS	low polyreactivity
QVQLVESGGGLVQAGGSLRLSCAASGSIFGANAMGLYRQAPGKERELLATITLRDGSTYYADSVKGRFTISRDNAKNTVYLQRNSLKPEDTAVYYCATYYSAINYGCSKTILYDYWGQGTQVTVSS	low polyreactivity
QVQLVESGGGLVQAGGSLRLSCAASGSIFGANAMGWYRQAPAKEWELVAAITRGGRTNYADSVKGRFTISRDNAKISVYLQMNSLKPEDTAVYYCNAAWGTGRWAGYISGGDWGQGTHVTVSS	high polyreactivity
QVQLVESGGGLVQAGGSLRLSCAASGSIFGANAMGWYRQAPGKERELVAAISTRGGRTYYADSVKGRFTISRDIAKNTVYLQMNSLKPEDTAVYYCAAYSSYPEYRRGKYDYWGQGTQVTVSS	high polyreactivity
QVQLVESGGGLVQAGGSLRLSCAASGSIFGANAMGWYRQAPGTVRELVAAISRRGGSTYYADSVKGRFTISRDNAKNTVHLQMNSLKPEDTAVYYCNTYPQSLGVKYGYWGQGTQVTVSS	high polyreactivity
QVQLVESGGGLVQAGGSLRLSCAASGSIFGANGMGWYRQAPGKESELVAASTSGGSTTYADYVKGRFTISRDNAKNTVYLQINSLKPEDTAVYYCAADECTPYWPVDNFDYWGQGTQVTVSS	low polyreactivity
QVQLVESGGGLVQAGGSLRLSCAASGSIFGAYAMGWYRQAPGKERELVAAISWRDGSTYYADSVKGRFTISRDNAKNTVYLQMNSLKPEDTAVYYCAAEYVYIFYDSDYWGQGTQVTVSS	high polyreactivity
QVQLVESGGGLVQAGGSLRLSCAASGSIFGAYAMGWYRQAPGKERELVAVISRSGGRTYYADSVKGRFTISRDNAKNTVYLQMNSLKPVDTAVYYCAADTRYVQYDYWGQGTQVTVSS	high polyreactivity
